Here are results for 1 substance from patent US20110189692A1.

Several values for one entry are separate records, joined by “and”; a condition that tells them apart may be missing. Equal entries are not always repeated.

Assay [1] deals with aggregated Aβ42 from Alzheimer's disease brain homogenate (human) (UniProt P05067).
For assay [2], the target named is PrP^Sc, pathogenic conformer of the human prion protein, from vCJD brain homogenate (human) (UniProt P04156).
For assay [3], the target named is PrP^C, non-pathogenic human prion protein, from normal brain homogenate (human) (UniProt P04156).
Assay [4] concerns the target PrP^Sc, pathogenic conformer of the human prion protein, from vCJD brain homogenate (human) (UniProt P04156). The source holds these as a separate data set.
The target of assay [5] is tau of normal human brain homogenate (native) (human) (UniProt P10636).

The substance “PSR1 (peptoid reagent XIIb attached to magnetic beads) (designed binder)” displayed a recovery in assay [1] of 100%. The ELISA signal after pulldown (RLU, ave) in assay [2] amounted to 53 RLU; in assay [3], 9.9 RLU. In addition, in assay [4], the pulldown efficiency was 100%. Further, in assay [5], the tau ELISA signal after pulldown, mean of 3 is 0.11 and 0.12. The tau ELISA signal after pulldown, replicate in assay [5] is 0.11 and 0.12 and 0.13.
